In patent publication US20240239907A1 (EDELWEISS IMMUNE, published 2024):

Assays:
human CXCR6 [1] = target: T1, human CXCR6 (human, UniProt O00574 1-342); assay: description of the chimeric clones used in the ADCC example
T1 construct: also called hu-CXCR6; wild type human CXCR6

human CXCR6 [2] = target: T1, human CXCR6; assay: screening on cells overexpressing CXCR6, one single concentration, yes/no
cynomolgus monkey CXCR6 [3] = target: T2, cynomolgus monkey CXCR6 (cynomolgus monkey, UniProt Q9BDS6 1-343); assay: as above
T2 construct: also called cyno-CXCR6; cyno monkey CXCR6
T2 sequence: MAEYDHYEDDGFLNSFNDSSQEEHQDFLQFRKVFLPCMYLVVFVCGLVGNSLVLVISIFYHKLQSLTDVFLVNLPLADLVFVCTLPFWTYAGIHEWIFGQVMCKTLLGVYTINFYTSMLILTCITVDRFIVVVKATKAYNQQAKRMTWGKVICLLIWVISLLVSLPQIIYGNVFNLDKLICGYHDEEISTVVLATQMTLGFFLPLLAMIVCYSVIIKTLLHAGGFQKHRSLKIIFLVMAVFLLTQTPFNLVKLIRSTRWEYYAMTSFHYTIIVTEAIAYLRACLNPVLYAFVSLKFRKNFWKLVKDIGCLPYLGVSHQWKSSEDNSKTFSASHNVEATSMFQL

cynomolgus monkey CXCR6 [4] = target: T2, cynomolgus monkey CXCR6; assay: description of the chimeric clones used in the ADCC example
human CXCR6 [5] = target: T1, human CXCR6; assay: flow cytometry on human CXCR6 over-expressing cells, no huCXCL-16 (FIG. 16)
Procedure: (§1) After washing and staining with secondary antibody, cells were analyzed by flow cytometry. The ED₅₀ for huCXCL-16 binding to human CXCR6 is 10-50 ng/ml. Thus, 1,500 ng/ml huCXCL-16 is an overwhelming concentration for competing with chimeric Genovac2-C1. In the absence of huCXCL-16, the ED₅₀ for chimeric Genovac2-C1 binding to human CXCR6 was 0.5 μg/ml (FIG. 16). In the presence of huCXCL-16 (1,500 ng/ml), the ED₅₀ for chimeric Genovac2-C1 binding to human CXCR6 was 1.5 μg/ml (FIG. 16). Accordingly, the human/mouse chimeric mAb retains the binding specificity and affinity in the presence of CXCL-16.

human CXCR6 [6] = target: T1, human CXCR6; assay: flow cytometry on human CXCR6 over-expressing cells pre-incubated with competitor huCXCL-16 at 1,500 ng/ml (FIG. 16)
Procedure: as §1

cynomolgus monkey CXCR6 [7] = target: T2, cynomolgus monkey CXCR6; assay: flow cytometry on cells overexpressing CXCR6, serial dilutions of antibody (FIG. 11)
Procedure: Wild type C57BL/6 mice were immunized and boosted with a full-length human CXCR6-vector. Prior to immunization, the vector was tested for cell surface expression of native human CXCR6 on transfected mammalian cell lines by flow cytometry to ensure a successful immunization and screening. Genetic immunization was performed by ballistically delivering DNA-coated gold particles into the skin of wild type C57BL/6 mice to elicit a target-specific immune response. After the serum test showing satisfactory titer of antibody binding to both human CXCR6 and cyno monkey CXCR6, mice were sacrificed. A single B cell platform was used to sequentially screen bone marrow antibody-producing plasma cells for binding to both human and cyno monkey CXCR6. The conventional hybridoma technique was used on splenocytes and lymph node cells. […] After sequencing the VH and VL, clones with distinct CDRs were further expressed as full-length murine antibodies or human chimeric antibodies. […]
Cells overexpressing human-CXCR6 (hu-CXCR6), cyno monkey CXCR6 (cyno-CXCR6) or mouse CXCR6 were cultured in DMEM medium containing 10% FCS. […] After two rounds of washing with PBS/0.5% BSA buffer, cells were further stained with fluorescence dye-labeled secondary antibody. After two more rounds of washing, cells were resuspended in PBS/0.5% BSA, fixed, and collected by flow cytometry and analyzed.

T1 sequence (O00574 whole entry): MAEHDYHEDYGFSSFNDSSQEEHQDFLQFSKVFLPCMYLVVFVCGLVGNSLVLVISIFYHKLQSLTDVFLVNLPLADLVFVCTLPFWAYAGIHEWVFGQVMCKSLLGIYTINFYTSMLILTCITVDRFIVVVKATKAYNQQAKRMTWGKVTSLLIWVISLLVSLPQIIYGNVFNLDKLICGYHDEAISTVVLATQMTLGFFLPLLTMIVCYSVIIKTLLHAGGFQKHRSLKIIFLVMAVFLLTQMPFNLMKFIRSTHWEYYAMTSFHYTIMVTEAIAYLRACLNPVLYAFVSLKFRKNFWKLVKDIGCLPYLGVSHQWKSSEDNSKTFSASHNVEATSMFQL

B1: chimeric COXs-1B10 (antibody, V domains shown)
VH: QVTLKESGPGILKASQTLSLTCSFSGFSLSTSGMGIGWIRQPSGKGPEWLAHIWWDDEKYYRPSLKSRLTVSKDTSRNQVFLNITSVDTTDSASYYCVQRTPGRFAYWGQGTLVTVST
VL: DIVMTQSPSSLAVSIGQKVIMSCKSSQSLLSSRTQKNYLAWYQQKPGQSPKLLVYFASIRESGVPDRFTGSGSGTDFTLTISTVQAEDLAVYYCQQYFLTPYTFGGGTKLEIK
notes: also called COXs-1B10 human chimeric mAb
B1: binds (human CXCR6 [1]).

B2: Beacon1-A4 (antibody, V domains shown)
VH: EVQLQQSGPVLVKPGASVKMSCKTSGYTFTDYYMNWVKQSHGKSLEWIGVIKPYSGRTSYDQKFKDKATLTVDKSSSTAYMELNSLTSEDSAVYYCAREGVSITTVGSSLYYYPMDYWGQGTSVTVSS
VL: DIVLTQSPATLSVTPGASVSLSCRASQSISNNLHWYQQKSHESLRLLIKYASQSVSGIPSRFSGSGSGTDFTLTINSVETEDFGMYFCQQSNSWPRTFGGGTKLEIK
notes: Mouse-derived; tested at the screening stage
B2: binds (human CXCR6 [2]).

B3: Beacon2-F1 (antibody, V domains shown)
VH: EVQLVESGGDLVKPGGSLKLSCAASGFTFSSYGMSWVRQTPDKRLEWVATISSGGSYTYYPDSVKGRFPISRDNAKNTLYQQMSSLNSEDTAMYYCARLYGNYPYFAMDYWGQGTSVTVSS
VL: DIVMTQSQKFMSTSVGDRVSITCKASQNVGTAVAWYQQKPGQSPKLLIFSASNRYTGVPDRFTGSGSGTDFTLTISNMQSEDLADYFCQQYSSYPYTFGGGTKLEIK
notes: as for B2
B3: binds (human CXCR6 [2]); binds (cynomolgus monkey CXCR6 [3]).

B4: COXs-2D2 human/mouse chimeric antibody with human IgG1 Fc (antibody, V domains shown)
VH: EVQLVESGGGLVQPKGSLKLSCTASGFSFDTYAMNWVRQAPGKGLEWIARIRSKSKNYATYYADSVKDRFTISRDDSANILYLQMNNLKTEDTAIYYCLRQGSFDYWGQGTTLTVSS
VL: DVVLTQTPLSLPVSLGDQASISCRSGQRIVHTDGNTYLYWYLQKPGQSPKLLIYRVSNRFSGVPDRFSGSGSGTDFTLKISRVEAEDMGIYYCFQGTHFPYTFGGGTKLEIK
B4: binds (human CXCR6 [1]).

B5: CNGs-3B2 (antibody, V domains shown)
VH: DVQLVESGGGLVQPGGSRTLSCAASGFTFSSFGMHWVRQAPEKGLEWVAYISSGSTTIYYADTVKGRFTISRDNPKNTLFLQVTSLRSEDTAVYYCTRSHWPYWYFDVWGAGTTVTVSS
VL: DVQITQSPSYLAASPGETITINCRASKSISKYLAWYQEKPGKTNKLLIYSGSTLQSGNPSRFSGSGSGTDFTLTISRLEPEDCAMYYCQQHNEFPWTFGGGTKLEIK
notes: as for B2
B5: binds (human CXCR6 [2]); binds (cynomolgus monkey CXCR6 [3]).

B6: Genovac1-G2 human/mouse chimeric antibody with human IgG1 Fc (antibody, V domains shown)
VH: DVQLQESGPGLVKPSQSLSLTCSVTGYSITSGYYWNWIRQFPGNKLEWMGYIRYDGSNNYNPSLKNRISITRDTSKNQFFLKLNSVTTEDTATYYCARDGYSTYFDYWGQGTTLTVSS
VL: DIQMTQSPASLSASVGETVTITCRASENIYSYLAWYQQKQGKSPQLLVYNAKTLAEGVPSRFSGSGSGTQFSLKINSLQPEDFGSYYCQHHYGTPWTFGGGTKLEIK
B6: binds (human CXCR6 [1]); binds (cynomolgus monkey CXCR6 [4]).

B7: chimeric Genovac2-C1 (antibody, V domains shown)
VH: DVKLVESGGGLVKPGGSLKLSCAASGFTFSSYTMSWVRQTPEKRLEWVATISSGGSYTYYPDSVKGRFTISRDNAKNTLYLQMSSLKSEDTAMYYCTRGGGNYPFWFFDVWGAGTTVTVSS
VL: DIQMTQSPASLSASVGETVTITCRASENIYSYLAWYQQKQGKSPQLLVYNAKTLAEGVPSRFSGSGSGTQFSLKIKSLQPEDFGSYYCQHHYGIPRTFGGGTKVETK
notes: also called Genovac2-C1 human chimeric mAb; human/mouse chimeric mAb
With B7 the binding result (cynomolgus monkey CXCR6 [4]) was “binds”, the EC50 (human CXCR6 [5]) was 0.5 mg/L and the EC50 (human CXCR6 [6]) was 1.5 mg/L.

B8: Genovac1-G2 (antibody, V domains shown)
VH: DVQLQESGPGLVKPSQSLSLTCSVTGYSITSGYYWNWIRQFPGNKLEWMGYIRYDGSNNYNPSLKNRISITRDTSKNQFFLKLNSVTTEDTATYYCARDGYSTYFDYWGQGTTLTVSS
VL: DIQMTQSPASLSASVGETVTITCRASENIYSYLAWYQQKQGKSPQLLVYNAKTLAEGVPSRFSGSGSGTQFSLKINSLQPEDFGSYYCQHHYGTPWTFGGGTKLEIK
notes: Mouse-derived
B8: binds (human CXCR6 [2]); binds (cynomolgus monkey CXCR6 [7]).

B9: Genovac2-C1 (antibody, V domains shown)
VH: DVKLVESGGGLVKPGGSLKLSCAASGFTFSSYTMSWVRQTPEKRLEWVATISSGGSYTYYPDSVKGRFTISRDNAKNTLYLQMSSLKSEDTAMYYCTRGGGNYPFWFFDVWGAGTTVTVSS
VL: DIQMTQSPASLSASVGETVTITCRASENIYSYLAWYQQKQGKSPQLLVYNAKTLAEGVPSRFSGSGSGTQFSLKIKSLQPEDFGSYYCQHHYGIPRTFGGGTKVETK
notes: Mouse antibody
B9: binds (cynomolgus monkey CXCR6 [7]).

B10: Genovac2-H2 (antibody, V domains shown)
VH: EVKLEESGGGLVRPGGSMKLSCVASGFTFSDYWMNWVRQSPEKGLEWLAQIRLNSGNYAARYAESVKGRFTISRDDSKNSVYLQMINLRAEDTGIYFCTSNAWLANWGQGTLVTVSA
VL: DIQMTQSPASLSVSVGETVTITCRASENIYNNLAWYQQKQGKSPQLLVYAATNLADGVPSRFSGSGSGTQYSLKINSLQSEDFGSYYCQHFWGTPWTFGGGTKLEIK
notes: as for B2
B10: binds (human CXCR6 [2]).

B11: Genovac1-D12 (antibody, V domains shown)
VH: EVKLEESGGGLVQPGGSMKLSCVASGFTFSNYWMNWVRQSPEKGLKWVAQIRLKSDNYGTHYAESVKGRFTISRDDSKGSVYLQMNNLRAEDTGIYYCTSNAWFAYWGQGTLVTVSA
VL: DIVMTQAAPSVPVTPGESVSISCRSSKSLLHSNGNTYLFWFLQRPGQSPQRLISYMSNLASGVPDRFSGRGSGTDFTLRISRVEAEDVGVYYCLLSLEYPYTFGSGTRLEIT
notes: as for B2
B11: binds (human CXCR6 [2]).

B12: Beacon2-A7 (antibody, V domains shown)
VH: EMKLEESGGGLVQPGGSMKLSCVASGFTFSNYWMSWVRQSPEKGLQWVGQIRLKSDNYATHYAESVKGKFTISRDDSKSSVYLQMNNLRAEDTGIYYCAPYSNWGYWGQGTTLTVSS
VL: DIVMTQAAPSIPVTPGGSVSISCRSTKSLLHTNGNTYLYWFLQRPGQSPQVLIYRMSNLASGVPDRFSGSGSGTAFTLRISRVEAEDVGVYYCMQYLEYPYTFGSGTKLEIK
notes: as for B2
B12: binds (human CXCR6 [2]).

B13: CNE-6E10 human/mouse chimeric antibody with human IgG1 Fc (antibody, V domains shown)
VH: EVQLVESGGGLVQPKGSLKLSCAASGFSFNTYAMNWVRQAPGKGLEWVARIRSKTNSYETYYADSVKDRFTISRDDSESMLYLQMNNLKTEDTAVYYCLSHGAFAYWGQGTLVTVSA
VL: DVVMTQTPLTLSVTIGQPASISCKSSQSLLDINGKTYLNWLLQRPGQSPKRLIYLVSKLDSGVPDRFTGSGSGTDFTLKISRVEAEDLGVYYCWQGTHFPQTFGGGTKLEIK
B13: binds (human CXCR6 [1]).

B14: CNE-6E5-C1 (antibody, V domains shown)
VH: QVTLKESGPGILQSSQILSLTCSFSGFSLITSGMGVSWIRKTSGKGLEWLAHIYWDDEKRYNPSLKSRLTISKGTSRNQVFLRITSVDTTDTATYFCVRREDFGDGFDYWGQGTTLTVSP
VL: DVLMTQAPLSLPVSLGDQASISCRSSQTIVHSNGVTYLEWYLQKPGQSPKLLIYKVSNRFSGVPDRFSGSGSGTYFTLKISRVEAEDLGVYYCFQGSHVPPTFGGGTKLEIK
notes: as for B2
B14: binds (human CXCR6 [2]); binds (cynomolgus monkey CXCR6 [3]).
